T1: human TIM-3 protein with hFc tag (hTIM-3-hFc protein) (human, UniProt Q8TDQ0 22-200)
T1 construct: also called immunogen 1; human TIM-3 extracellular domain protein; not shown: human IgG Fc fragment (hFc) of the pCpC vector
T1 sequence: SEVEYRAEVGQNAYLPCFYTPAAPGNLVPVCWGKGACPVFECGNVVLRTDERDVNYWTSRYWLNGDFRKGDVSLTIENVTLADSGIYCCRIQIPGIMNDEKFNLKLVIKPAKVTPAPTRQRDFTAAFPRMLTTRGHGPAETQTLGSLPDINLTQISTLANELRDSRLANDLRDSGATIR

T2: murine TIM-3 protein with hFc tag (mTIM-3-hFc protein) (mouse; human, UniProt Q8VIM0 29-191)
T2 construct: Made in HEK293 cells; also called mouse TIM-3 extracellular domain protein; not shown: human IgG Fc fragment (hFc) of the pCpC vector
T2 chain: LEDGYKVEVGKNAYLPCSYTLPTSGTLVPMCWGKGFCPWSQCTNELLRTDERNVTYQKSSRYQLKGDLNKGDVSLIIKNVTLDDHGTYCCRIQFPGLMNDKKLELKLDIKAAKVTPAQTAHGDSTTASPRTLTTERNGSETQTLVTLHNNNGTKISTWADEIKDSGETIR

T3: human TIM-3 on CHOK1 stable cell line (CHOK1-hTIM-3) (human, UniProt Q8TDQ0 22-301)
T3 sequence: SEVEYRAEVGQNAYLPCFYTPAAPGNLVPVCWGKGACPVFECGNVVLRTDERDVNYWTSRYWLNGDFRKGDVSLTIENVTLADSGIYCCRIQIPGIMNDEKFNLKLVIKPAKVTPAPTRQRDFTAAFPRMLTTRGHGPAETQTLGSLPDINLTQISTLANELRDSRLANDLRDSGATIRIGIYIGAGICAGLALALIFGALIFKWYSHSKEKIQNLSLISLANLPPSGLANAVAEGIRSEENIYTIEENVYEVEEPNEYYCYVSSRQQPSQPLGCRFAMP

T4: monkey TIM-3 on CHOK1 stable cell line (CHOK1-cTIM-3) (monkey)
T4 chain: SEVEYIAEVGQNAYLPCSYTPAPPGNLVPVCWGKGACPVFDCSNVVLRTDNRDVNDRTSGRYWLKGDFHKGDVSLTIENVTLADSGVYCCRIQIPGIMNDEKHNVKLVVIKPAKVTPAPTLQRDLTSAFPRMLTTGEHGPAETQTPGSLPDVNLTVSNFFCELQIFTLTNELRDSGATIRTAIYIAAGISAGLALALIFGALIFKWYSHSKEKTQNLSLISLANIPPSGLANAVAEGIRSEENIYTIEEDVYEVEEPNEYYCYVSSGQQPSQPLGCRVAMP

T5: human TIM-3 extracellular domain protein with hFc tag (hTIM-3-hFc) (human, UniProt Q8TDQ0 22-200)
T5 construct: not shown: human IgG Fc fragment (hFc) of the pCpC vector
T5 sequence: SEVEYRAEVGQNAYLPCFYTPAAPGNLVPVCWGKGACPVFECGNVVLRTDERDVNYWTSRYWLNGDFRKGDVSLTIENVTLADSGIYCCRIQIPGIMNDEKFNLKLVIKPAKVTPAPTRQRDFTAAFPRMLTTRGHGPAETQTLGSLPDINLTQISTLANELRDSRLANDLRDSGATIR


How the values were obtained:
[1] = target: T1, human TIM-3 protein with hFc tag …; test: ELISA, coated hTIM-3-hFc; antibody 0.0067 nM
From the text: (§1) The amino acid sequence 22-200 of the extracellular domain of the human TIM-3 protein described in the step of Example 1 (as shown in SEQ ID NO. 71 in the sequence listing) was cloned into a pCpC vector having a human IgG Fc fragment (hFc), and transfected into HEK293 cells. The cell culture medium was collected, and purified to obtain the human TIM-3 protein with hFc tag (herein referred to as hTIM-3-hFc protein). The amino acid sequence 22-201 of the extracellular domain of the monkey TIM-3 protein (as shown in SEQ ID NO. 72 in the sequence listing) was cloned into a pCpC vector having a human IgG Fc fragment (hFc), and transfected into HEK293 cells. The cell culture medium was collected, and purified to obtain the monkey TIM-3 protein with hFc tag (herein referred to as cTIM-3-hFc protein). […] The cell culture medium was collected, and purified to obtain the murine TIM-3 protein with hFc tag (herein referred to as mTIM-3-hFc protein). Purified human, monkey, and mouse TIM-3 extracellular domain proteins (hTIM-3-hFc, cTIM-3-hFc, and mTIM-3-hFc) were diluted with PBS to a final concentration of 1.0 μg/ml and then added to a 96-well ELISA plate with 100 μl per well. The plate was sealed with plastic film and incubated overnight at 4° C. The plate was washed 4 times with the plate washing solution (PBS+0.01% Tween20) on the next day, and added with the blocking solution (PBS+0.01% Tween20+1% BSA) and sealed at room temperature for 1-2 hours. The blocking solution was poured out. 50-100 μl of the antibody sample to be tested was added to each well. The plate was incubated at 37° C. for 1-2 hours, and washed 2-3 times with plate washing solution (PBS+0. 01% Tween20). HRP (horseradish peroxidase) labeled secondary antibody was added. The plate was incubated at 37° C. for 1-2 hours, and washed 2-3 times with plate washing solution (PBS+0. 01% Tween20). […] of TMB substrate was added to each well. After incubated at room temperature for 15-30 minutes, the plate was added with […] stop solution (1.0N HCl) to each well. An ELISA plate reader (TiterMax 384plus, Molecular Device) was used to read the A450 nm value.

[2] = target: T2, murine TIM-3 protein with hFc tag …; test: ELISA, coated mTIM-3-hFc; antibody 0.0007 nM
From the text: as §1

[3] = target: T2, murine TIM-3 protein with hFc tag …; test: ELISA, coated mTIM-3-hFc; antibody 0.0067 nM
From the text: as §1

[4] = target: T3, human TIM-3 on CHOK1 stable cell line …; test: FACS, CHOK1-hTIM-3 cells, 8 nM antibody
[5] = target: T3, human TIM-3 on CHOK1 stable cell line …; test: FACS, CHOK1-hTIM-3 cells, 1.6 nM antibody
[6] = target: T4, monkey TIM-3 on CHOK1 stable cell line …; test: FACS, CHOK1-cTIM-3 cells, 1.6 nM antibody
[7] = target: T5, human TIM-3 extracellular domain …; test: ELISA, coated human TIM-3 ECD protein, 0 nM antibody
[8] = target: T5, human TIM-3 extracellular domain …; test: ELISA, coated human TIM-3 ECD protein, 0.0067 nM antibody
[9] = target: T5, human TIM-3 extracellular domain …; test: ELISA, coated human TIM-3 ECD protein, 0.0667 nM antibody

OD450 [1]	OD450 [2]	OD450 [3]	Mean fluorescence intensity [4]	Mean fluorescence intensity [5]	Mean fluorescence intensity [6]	OD450 [7]	OD450 [8]	OD450 [9]	Binder
0.33	0.65	0.65	–	–	–	–	–	–	34B6D8 (TIM-3 antibody purified from hybridoma, chimeric antibody of Example 2) (antibody, V domains shown, From hybridoma of Harbour H2L2 transgenic mice: human variable regions, rat constant regions) VH: EVQLVESGGGLVQPGGSLRLSCAASGFTFSTYWMTWVRQAPGKRLEWVANIKQGGGDKYYVDSVKGRFTISTDNAKNSLYLQMNSLRAEDTAVYYCARGSNWFDPWGQGTLVTVSS VL: EIVMTQSPATLSMSPGERATLSCRASQSVYDNLAWYQQKPGQAPRLLIYGASTRATGIPARFSGSGSGTEFTLTISSLQSEDFALYYCQQYTHWPITFGQGTRLEIK
–	–	–	308	282	177	0.08	0.32	1.69	7A4F10 fully human TIM-3 antibody (human IgG4, kappa) (antibody, V domains shown) VH: EVQLLESGGGLVQPGGSLRLSCAASGFTFRTHLISWVRQAPGKGLEWVAAITGSGGSTYYADSVKGRFIISRDNSKNTLFLQMNSLRAEDTAVYYCAKDGGSGSYDDFWGQGTLVTVSS VL: ETVLTQSPVTLSLSPGERATLSCRASQSVGSYLAWYQQKPGQAPRLLIYDASNRATGIPARFSGSGSGTDFTLTISSLEPEDFAVYYCQQRSNWPPTFGQGTKVEIK
0.13	0.64	0.64	–	–	–	–	–	–	7A4F10 (TIM-3 antibody purified from hybridoma, chimeric antibody of Example 2) (antibody, V domains shown, From hybridoma of Harbour H2L2 transgenic mice: human variable regions, rat constant regions) VH: EVQLLESGGGLVQPGGSLRLSCAASGFTFRTHLISWVRQAPGKGLEWVAAITGSGGSTYYADSVKGRFIISRDNSKNTLFLQMNSLRAEDTAVYYCAKDGGSGSYDDFWGQGTLVTVSS VL: ETVLTQSPVTLSLSPGERATLSCRASQSVGSYLAWYQQKPGQAPRLLIYDASNRATGIPARFSGSGSGTDFTLTISSLEPEDFAVYYCQQRSNWPPTFGQGTKVEIK
–	–	–	154	156	207	0.08	0.23	1.22	57F4E5 fully human TIM-3 antibody (human IgG4, kappa) (antibody, V domains shown) VH: EVQLVESGGGLVQPGGSLRLSCAASGFTFSSYWMSWVRQAPGKGLEWVANIKQDGSEKYYVDSVKGRFTISRDSAKNSLYLQMNSLRAEDTAMYFCARDSNFFDYWGQGTLVTVSS VL: ETVMTQSPATLSVSPGERATLSCRASQSVSSNLAWYQRKPGQAPRLLIYFSSTRATGIPARFSGSGSGTEFTLTISSLQSEDFAVYYCQQYNNWPLTFGGGTKVEIK
–	–	–	229	207	326	0.08	0.27	1.28	134H3G6 fully human TIM-3 antibody (human IgG4, kappa) (antibody, V domains shown) VH: EVQLVESGGGLVQPGGSLRLSCAASGFTFSNSWMTWVRQAPGKGLEWVANIKQAGTEKYYVDSVKGRFTISRDNAKNSLYLQMNSLRAEDTAVYYCNSGSNYFDYWGQGTLVTVSS VL: EIVMTQSPATLSVSPGERATLSCRARQNFYSNLAWYQQKPGQAPRLLIYGASTRATGIPARFSGSGSGTEFTLTISSLQSEDFAVYYCQQYNNWPLTFGGGTKVEIK
0.13	0.62	0.64	–	–	–	–	–	–	134H3G6 (TIM-3 antibody purified from hybridoma, chimeric antibody of Example 2) (antibody, V domains shown, From hybridoma of Harbour H2L2 transgenic mice: human variable regions, rat constant regions) VH: EVQLVESGGGLVQPGGSLRLSCAASGFTFSNSWMTWVRQAPGKGLEWVANIKQAGTEKYYVDSVKGRFTISRDNAKNSLYLQMNSLRAEDTAVYYCNSGSNYFDYWGQGTLVTVSS VL: EIVMTQSPATLSVSPGERATLSCRARQNFYSNLAWYQQKPGQAPRLLIYGASTRATGIPARFSGSGSGTEFTLTISSLQSEDFAVYYCQQYNNWPLTFGGGTKVEIK
0.42	0.63	0.64	–	–	–	–	–	–	39E5H1 (TIM-3 antibody purified from hybridoma, chimeric antibody of Example 2) (antibody, V domains shown, From hybridoma of Harbour H2L2 transgenic mice: human variable regions, rat constant regions) VH: EVQLVESGGGLVQPGGSLRLSCAASGFTFSSYWMSWVRQAPGKGLEWVANIKRGGSERYYVDSVKGRFTISGDNAKNSVYLQMNSLRAEDTAVYYCARGSNWFDPWGQGTLVTVSS VL: ETVMTQSPAILSVSPGERATLSCRASQSVYSNLAWYQQKLGQAPRLLIYDASTRATGIPARFSGSGSGTEFTLTISSLQSEDFAVYYCQQYNNWPITFGQGTRLEIK
0.16	0.64	0.63	–	–	–	–	–	–	18D2H2 (TIM-3 antibody purified from hybridoma, chimeric antibody of Example 2) (antibody, V domains shown, From hybridoma of Harbour H2L2 transgenic mice: human variable regions, rat constant regions) VH: EVQLVESGGDLVQPGGSLRLSCAASGFTFSTYWMTWVRQAPGRGLEWVANIKQDGSAKYYVDSVKGRFTLSRDDAKNSLYLQMNSLRAEDTAVYYCARGSNWFDYWGQGTLVTVSS VL: ETVMTQSPATLSVSPGERATLSCRANQNVYSNLAWYQQKPGQAPRLLIYDASTRATGFPARFSGSGSGTEFTLTISSLQSEDFAVYYCQQYNNWPLTFGGGTKVEIK
0.63	0.67	0.68	–	–	–	–	–	–	57F4E5 (TIM-3 antibody purified from hybridoma, chimeric antibody of Example 2) (antibody, V domains shown, From hybridoma of Harbour H2L2 transgenic mice: human variable regions, rat constant regions) VH: EVQLVESGGGLVQPGGSLRLSCAASGFTFSSYWMSWVRQAPGKGLEWVANIKQDGSEKYYVDSVKGRFTISRDSAKNSLYLQMNSLRAEDTAMYFCARDSNFFDYWGQGTLVTVSS VL: ETVMTQSPATLSVSPGERATLSCRASQSVSSNLAWYQRKPGQAPRLLIYFSSTRATGIPARFSGSGSGTEFTLTISSLQSEDFAVYYCQQYNNWPLTFGGGTKVEIK
–	–	–	298	235	252	0.08	0.27	1.29	215A8F2 fully human TIM-3 antibody (human IgG4, kappa) (antibody, V domains shown) VH: QVQLQQWGAGLLKPSETLSLTCTVYGGSFSGYYWNWIRQPPGKGLEWLGEINHSGSTNYNPSLKRRVTISVDTSKNQFSLKLSSVTAADTAVYYCARVYYYGPFDFWGQGTLVTVSS VL: not shown
0.28	0.67	0.64	–	–	–	–	–	–	215A8F2 (TIM-3 antibody purified from hybridoma, chimeric antibody of Example 2) (antibody, V domains shown, From hybridoma of Harbour H2L2 transgenic mice: human variable regions, rat constant regions) VH: QVQLQQWGAGLLKPSETLSLTCTVYGGSFSGYYWNWIRQPPGKGLEWLGEINHSGSTNYNPSLKRRVTISVDTSKNQFSLKLSSVTAADTAVYYCARVYYYGPFDFWGQGTLVTVSS VL: not shown

— patent US20220033501A1 (SHANGHAI PHARMAEXPLORER, published 2022)
